The results in this text go back to article PMC11919764, “Cryo-electron tomography reveals how COPII assembles on cargo-containing membranes” (Nature Structural & Molecular Biology, 2024).

This assay concerns the target T1, Sec24 (S. cerevisiae, UniProt P40482 1-926).
T1 construct: Sec24, S. cerevisiae; The Sec24 chain of m2; in the assays it stood in the Sec23–Sec24 complex
T1 sequence: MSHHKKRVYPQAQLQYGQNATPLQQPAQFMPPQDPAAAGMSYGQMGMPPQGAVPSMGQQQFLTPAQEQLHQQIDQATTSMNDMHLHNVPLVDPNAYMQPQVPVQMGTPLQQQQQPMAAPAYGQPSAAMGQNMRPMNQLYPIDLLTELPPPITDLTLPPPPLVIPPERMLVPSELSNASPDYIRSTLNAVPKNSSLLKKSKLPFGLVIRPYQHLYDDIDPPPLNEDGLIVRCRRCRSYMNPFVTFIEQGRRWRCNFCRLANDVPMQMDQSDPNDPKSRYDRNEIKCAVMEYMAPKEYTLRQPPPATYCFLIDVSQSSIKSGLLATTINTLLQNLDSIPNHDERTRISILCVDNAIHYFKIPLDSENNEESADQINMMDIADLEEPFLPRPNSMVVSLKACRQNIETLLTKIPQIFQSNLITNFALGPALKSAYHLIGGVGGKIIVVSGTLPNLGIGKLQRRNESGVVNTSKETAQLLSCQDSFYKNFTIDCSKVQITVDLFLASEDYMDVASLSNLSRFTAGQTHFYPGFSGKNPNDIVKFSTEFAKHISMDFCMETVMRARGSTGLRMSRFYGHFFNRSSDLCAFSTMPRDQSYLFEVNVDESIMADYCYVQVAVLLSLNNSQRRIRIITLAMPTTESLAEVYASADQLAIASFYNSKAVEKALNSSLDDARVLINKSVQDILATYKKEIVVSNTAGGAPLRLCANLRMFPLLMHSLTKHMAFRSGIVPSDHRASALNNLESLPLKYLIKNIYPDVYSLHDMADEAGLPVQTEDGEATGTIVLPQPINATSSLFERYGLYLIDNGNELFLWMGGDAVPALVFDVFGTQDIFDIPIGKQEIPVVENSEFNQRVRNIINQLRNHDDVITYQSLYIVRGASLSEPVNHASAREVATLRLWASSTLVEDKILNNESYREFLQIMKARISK
Nature of the assay: cryo-EM structure; cryo-ET with subtomogram averaging of COPII budding reactions on GUVs enriched with Sed5 held by its 6xHis-tag on Ni-NTA lipids: 1 μM Sar1, 180 nM Sec23–Sec24, 173 μM Sec13–Sec31, 360 nM Sed5, 1 mM GMP-PNP, 2.5 mM EDTA (pH 8.0), 10% GUVs (v/v); coated tubes; atomic models rigid-body fitted. As to conditions: both partners purified.

B1: Sed5 cytosolic domain (residues 1–319) with C-terminal 6xHis-tag (domain or fragment, S. cerevisiae)
chain: MNIKDRTSEFQQSVLSYKKRNKNFREQQRERLQEKESENFANNTTGNGKSVSEFQKKASGIAHEISSTAQLLSKLAVLAKRKPMFNDNPVEIAELSFLIKRKIYAIEQSLVQLSQLKKTDVNGNTSNQSSKQPSAVQHSKNVVNLLNTQMKNISGSFKDVLEERQRLEMANKDRWQKLTTDTGHAPADDQTQSNHAADLTTYNNSNPFMTSLLDESSEKNNNSSNQGELSFPQNDSQLMLMEEGQLSNNVYLQERNRAVETIESTIQEVGNLFQQLASMVQEQGEVIQRIDANVDDIDLNISGAQRELLKYFDRIKSNRGGG
notes: Sed5, S. cerevisiae S288c, UniProt Q01590, residues 1–319 (transmembrane helix truncated); flexible triple-glycine linker between residue 319 of Sed5 and the 6xHis-tag; Held on GUVs through Ni-NTA tagged lipids by its C-terminal 6xHis-tag, which stands in place of the transmembrane domain; also called 6xHis-tagged Sed5; source: E. coli BL21, purified (Ni-NTA, HiTrap Q, Superdex 200); not shown: …
In the case of B1, the binding result is on record as “binds”.
